The series is described as follows: yeast display, Sf9 membrane polyspecificity reagent, FACS + sequencing; frameworks hold sequencing errors. The method in brief: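 In a synthetic yeast display library (Saccharomyces cerevisiae BJ5465), nanobody expression was induced with galactose for 36–48 hours. FACS gates were set low and high (top ~1%) using anti-HA fluorescence for expression and streptavidin fluorescence for binding of the Sf9 membrane reagent. Each polyreactivity label is drawn from the gate of origin.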
With “QVQLVESGGGLDQAGGSLRLSCAASGITFQWYTMGWYIQAPGKERDLVATISSGGSTNYADSVKGRFTISRDNAKNTVYLQMKSLKPEDTAVYYCAKQPTVYHHYGLGYWGQGTQVTVSS”, the “polyreactivity (PSR sort gate)” value was “low polyreactivity”.

With “QVQLVESGGGLDQAGGSLRLSCAASGITFSTYAMGWYRQAPGKEREFVAAISASGGTTYYADSVKGRFTISRDNAKNTVYLQMNSLKPEDTAVYYCAADRFRVYLIYIWAMGYWGQGTQVTVSS”, the “polyreactivity (PSR sort gate)” value is reported as “high polyreactivity”.

As to “QVQLVESGGGLDQAGGSLRLSCAASGITFYRYVKGWYRQAPGKEREYVAAINWSTGTTNYADSVKGRFTISRDNAKNTVYFQMNILKPEDTAVYYCNARYRLRYIYSLRYDYWGQGTHVTVSS”, the “polyreactivity (PSR sort gate)” value is on record as “high polyreactivity”.

In the case of “QVQLVESGGGLDQAGGSLRLSCAASGLTFPTNARGWYRQAPGKEREFVAAITSRGGTTYYADSVKGRFTISRDNAKNTVYLQMNSLKPEETAVYYCGALSVTIYQYDSYGYWGQGTQVSVSS”, the “polyreactivity (PSR sort gate)” value is on record as “low polyreactivity”.

For the sequence “QVQLVESGGGLDQAGGSLRLSCAASGLTFQWNAMGWYRQAPGKERELVAGITDIGDSTYYADSVKGRFTISRDNAKHTDYLQLNSLKPEDTAVYYCNATSGYKHAWRSENGYWGQGTQVTVSS”, the “polyreactivity (PSR sort gate)” value is reported as “low polyreactivity”.

Turning to “QVQLVESGGGLDQAGGSLRLSCAASGLTFYYYAMGWYRQAPGKERELVAAITWRGVSTYYADSVKGRFTISRDNAKNTVYLQMNSLKPEDTAVYYCAAGWTSSRYDFWGQGTQVTVSS”, the “polyreactivity (PSR sort gate)” value is “high polyreactivity”.

With “QVQLVESGGGLDQAGGSLRLSCAASGMTFHPYAMGWYRQAPGKERELVAAISSRGTSTYYADSVKGRFTISRDIAKNTVYLQMNSLKPEDTAVYYCAAEVITIGLYRYGYWGQGTQVTVSS”, the “polyreactivity (PSR sort gate)” value is listed as “high polyreactivity”.

For “QVQLVESGGGLDQAGGSLRLSCAASGNTSPVNAMGWYRQAPGKERELVAAITQSGGSTYYADSVKGRFTISRDNAKNTVYLQMNSLKPEDTAVYYCAAPDAGWRDGGDYWGQGTQVTVSS”, the “polyreactivity (PSR sort gate)” value is “low polyreactivity”.

Take “QVQLVESGGGLDQAGGSLRLSCAASGRIFIKNTMGWYRQAPGKERELVAAITSSGSSTYYADSVKGRFTISRDNAKNTVYLKMNSLKPEDTAVYYCNALTWDHSRTGVDYWGQGTQVTVSS”: the “polyreactivity (PSR sort gate)” value is “low polyreactivity”.

For “QVQLVESGGGLDQAGGSLRLSCAASGRIFKRYAMGWYRQAPGKERELVAAITRSGTRTYYADSVKGRFTISRDNAKNTVYLQMNSLKPEDTAVYYCAAALGWYSAFGYWGQGTQVTVSS”, the “polyreactivity (PSR sort gate)” value was “high polyreactivity”.

With “QVQLVESGGGLDQAGGSLRLSCAASGRIFNKYAMGWYRQAPGKERELVAAISSGASTYYADSVKGRFTISRDNAKNTVYLQMNSLKPEDTAVYYCAAGGSKGGNYWGQGTQVTVSS”, the “polyreactivity (PSR sort gate)” value is given as “high polyreactivity”.

For the sequence “QVQLVESGGGLDQAGGSLRLSCAASGRIFQYYAMGWYRQAPGKERELVAAITSGGRTTYADSVKGRFTISRDNAKNNVYLQMNSLKPEDTAVYYCNAKTWYSYNYWGQGTQVTVSS”, the “polyreactivity (PSR sort gate)” value is “high polyreactivity”.

For the sequence “QVQLVESGGGLDQAGGSLRLSCAASGRIFRPNAMGWYRQAPGKERELVAAITSGGSTNYADSVKGRFTISRDNAKNTVYLQMNSLKPEDNAVYYCAKGYKYGKNIYYYWGQGTQVTVSS”, the “polyreactivity (PSR sort gate)” value is “high polyreactivity”.

In the case of “QVQLVESGGGLDQAGGSLRLSCAASGRIFRYNAMVWYRQAPGKERELVASISGTSRTKYADSVKGRFTISRDNAKNTVYLQMNSLKPEDTAVYYCAARRYGWGRAQSSASYDHWGQGTQVTVSS”, the “polyreactivity (PSR sort gate)” value is “high polyreactivity”.

For the sequence “QVQLVESGGGLDQAGGSLRLSCAASGRIFTAYAMGWYRQAHGKERELVAAISSGDSTYYADSVKGRFTISRDNAKNTVYLQMNSLKPEDTAVYYCATGVYPDFEYDSWGQGTQVTVSS”, the “polyreactivity (PSR sort gate)” value is listed as “low polyreactivity”.

Consider “QVQLVESGGGLDQAGGSLRLSCAASGRIFTVYAMGGYRQAPGKERELVAAISGRGGRTYYADSVKGRFTISRDIAKNTVYLQMNSLKPEDTAVYYCNADTLTLTRPDGDIHTVWMDYWGQGTQVTVSS”, for which the “polyreactivity (PSR sort gate)” value is given as “low polyreactivity”.

For “QVQLVESGGGLDQAGGSLRLSCAASGRNFTRYAMGWYRQAPGKERELVAVITRSGGSTYYADSVKGRFTISRDNAKNTVYLQMNSVKPEDTAVYYCDAKYYGEMYYWGQRTQVTVSS”, the “polyreactivity (PSR sort gate)” value was “low polyreactivity”.

Take “QVQLVESGGGLDQAGGSLRLSCAASGRTFAYYAIGWYRQAPGKERELVATITSYVGRTYYADSVKGRFTISRDNAKKSVYLQMNSLKPDDTAVYYSNARDWGRTRGGGYPWLYRYDYWGQGTQVTVSS”: the “polyreactivity (PSR sort gate)” value was “low polyreactivity”.

In the case of “QVQLVESGGGLDQAGGSLRLSCAASGRTFFDYAMGWYRQATGKERELVAAINWSGGRTYYADSVKGRFTISRDNAKNTVYLQMISLKPEDTAVYYCAAIYGSLYPTGQTRRDYYSWGQGTKVTVSS”, the “polyreactivity (PSR sort gate)” value is “low polyreactivity”.

For the sequence “QVQLVESGGGLDQAGGSLRLSCAASGRTFGTYVMGWSRQAPGKERELVAAITGSGGSTYYADSVKGRFTISRDIAKNSVYLQMNSLKPEDTAVYYCSAKYRRPRYGFWGQGTQVTVSS”, the “polyreactivity (PSR sort gate)” value is “high polyreactivity”.

Turning to “QVQLVESGGGLDQAGGSLRLSCAASGSIFAYYVMGWYRQAKGKERELVAAITSVGSTNYADSVKGRFTISRDNAKNTVYLQMNSLKPEESAVFYCAADQYQARYYYWGQGTQVTVSS”, the “polyreactivity (PSR sort gate)” value is given as “low polyreactivity”.

Take “QVQLVESGGGLDQAGGSLRLSCAASGSIFDSNALGWYRQAPGKERELVASITSSGGSTYYADSVKGRFTISRDKAKNTVYLQMNSLKPEDTAVYYCAADSYKTKHDAYDYCGQGTQVTVSS”: the “polyreactivity (PSR sort gate)” value was “high polyreactivity”.

As for “QVQLVESGGGLDQAGGSLRLSCAASGSIFDSYVMGWYRQAPGKERDLVAAFSRGGSTYYADSVKGRFTISRDNAQNTVYLQINSLKPEDTSVYYCAAGYRVHSPDDCYWGQGTQVTVSS”, the “polyreactivity (PSR sort gate)” value is reported as “low polyreactivity”.

As for “QVQLVESGGGLDQAGGSLRLSCAASGSIFGYYAMGWYRQAPGKERELVAAISWSDGSTYYADSVKGRFTISRDNAKNTVYLQMNSLKPEDTAVYSCAARFTPYITSDDGHYDYWGQGTEVTVSS”, the “polyreactivity (PSR sort gate)” value is “low polyreactivity”.

As for “QVQLVESGGGLDQAGGSLRLSCAASGSIFRGYAMGWYRQAPGKERDLVAAINRSGGRTYYADSVKGRFTISRDNAKNTVYLQMNRLKPEDTAVYYCAADYFFYQPSGYDYWGQGTQVTVSS”, the “polyreactivity (PSR sort gate)” value was “high polyreactivity”.

For “QVQLVESGGGLDQAGGSLRLSCAASGSIFRNYAMGWYRQAPGKEREFVAAISGGGGSTYYADSVKGRFTISRDNAKNTVYLQMNSLKPEDTAVYYCARVRYYGALKLYAYDHWGQGTQVTVSS”, the “polyreactivity (PSR sort gate)” value is on record as “high polyreactivity”.

On to “QVQLVESGGGLDQAGGSLRLSCAASGSIFRPYTMGWYRQAPGKERELVAAITGTCGSTRYADSVKGRFTISRDNAKNTVYLQMNSLNPEDNAVYYCAVYPPYRGRYDYRKYDSWGQGTQVTVSS”, for which the “polyreactivity (PSR sort gate)” value was “low polyreactivity”.

Consider “QVQLVESGGGLDQAGGSLRLSCAASGSIFRYYAMGWYRQAPGKEREFVASITYRGGRTYYADSVKGRFTISRDNAKNTVYLQMNSLKPEDTAVYYCAARTRAGAWTSKYHDYWGQGTQVTVSS”, for which the “polyreactivity (PSR sort gate)” value is on record as “high polyreactivity”.

For “QVQLVESGGGLDQAGGSLRLSCAASGSIFRYYVMGWYRQAPGKERELVAAISWSGGTTYYADSVKGRFTISRDNAKNTVYLQMNSLKPEDTAVYYCAAKGPLGYYHATDYHDYWGQGTQVTVSS”, the “polyreactivity (PSR sort gate)” value is reported as “high polyreactivity”.

Turning to “QVQLVESGGGLDQAGGSLRLSCAASGSIFSYYAMGWYRPAPGKERELVADNRWSGGSTYYADSVKGRFTISRDKAKNTVYLQMNSLKPEDTAVYYCNTLYLVYLYWTSPTPSDLFDYWGQGTQVTVSS”, the “polyreactivity (PSR sort gate)” value was “low polyreactivity”.

For the origin of these results see the nanobody polyreactivity screen of Harvey et al. (2022).
